Literature values in publication PMC3466315.
pKd: −log10 of the molar value.

Target: NifL 1-140 (Azotobacter vinelandii) (UniProt P30663)
Settings: cited from earlier work

Sequence of NifL 1-140 (P30663 1-140): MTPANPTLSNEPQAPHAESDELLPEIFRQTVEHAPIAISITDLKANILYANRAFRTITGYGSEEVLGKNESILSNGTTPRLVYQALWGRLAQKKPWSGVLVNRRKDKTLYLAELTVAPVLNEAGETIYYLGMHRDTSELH

Substance: NifL 1-140 (from UniProt P30663)
- pKd: 6.82
